In US20160304622A1 (GENEFRONTIER, published 2016):

What was measured:
[1] = target: T1, peptide #36 of the human ADAMTS4 peptide array (GGKYCEGRRTRF) (human); assay: peptide array, HRP-labeled antibody
T1 construct: Immobilized on a peptide array
T1 peptide: GGKYCEGRRTRF
Source text: (§1) To be specific, as shown in the following Table, a peptide array consisting of peptides having the residue number of 12 amino acid residues and an offset of 3 amino acid residues was produced relative to a sequence covering the thrombospondin domain of human ADAMTS4.

[2] = target: T2, peptide #37 of the human ADAMTS4 peptide array (GKYCEGRRTRFR) (human); assay: peptide array, HRP-labeled antibody
T2 construct: Immobilized on a peptide array
T2 peptide: GKYCEGRRTRFR
Source text: as §1

[3] = target: T3, peptide #38 of the human ADAMTS4 peptide array (KYCEGRRTRFRS) (human); assay: peptide array, HRP-labeled antibody
T3 construct: Immobilized on a peptide array
T3 peptide: KYCEGRRTRFRS
Source text: as §1

[4] = target: T4, peptide #39 of the human ADAMTS4 peptide array (YCEGRRTRFRSC) (human); assay: peptide array, HRP-labeled antibody
T4 construct: Immobilized on a peptide array
T4 peptide: YCEGRRTRFRSC
Source text: as §1

[5] = target: T5, recombinant human ADAMTS4 (residues Phe213-Cys685, C-terminal Strep-tag II) (human, UniProt O75173 213-685); assay: SPR (BIAcore 3000), ADAMTS amine-coupled on CM5 chip, IgG1 injected
T5 construct: Made in HEK293T cells; metalloproteinase, disintegrin, thrombospondin and cysteine-rich domains; also called recombinant ADAMTS4; not shown: Strep-tag II at the C-terminal
T5 sequence: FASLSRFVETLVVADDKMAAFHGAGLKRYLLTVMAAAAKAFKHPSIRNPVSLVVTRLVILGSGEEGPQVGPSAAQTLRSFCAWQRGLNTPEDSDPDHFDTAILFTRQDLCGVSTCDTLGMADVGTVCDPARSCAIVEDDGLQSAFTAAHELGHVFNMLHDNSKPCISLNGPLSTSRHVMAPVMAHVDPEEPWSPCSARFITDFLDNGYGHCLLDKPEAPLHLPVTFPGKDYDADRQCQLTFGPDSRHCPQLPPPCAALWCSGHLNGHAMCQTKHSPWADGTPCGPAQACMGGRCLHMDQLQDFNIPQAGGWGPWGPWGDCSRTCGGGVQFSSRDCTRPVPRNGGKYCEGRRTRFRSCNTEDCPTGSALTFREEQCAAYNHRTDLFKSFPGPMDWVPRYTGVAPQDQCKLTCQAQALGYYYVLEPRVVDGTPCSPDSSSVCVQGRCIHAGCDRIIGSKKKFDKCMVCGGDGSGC
Procedure: (§2) Surface plasma resonance interaction (BIAcore) analysis Recombinant ADAMTS species were covalently immobilized via amine coupling on CM5 sensor chip flow chambers (GE Healthcare Life Sciences, Buckinghamshire, UK). […] The KD (the affinity) was calculated from the determined Kₐ and Kd values.

[6] = target: T6, Recombinant ADAMTS5 protein containing the metalloproteinase, disintegrin and thrombospondin domains … (human, UniProt Q9UNA0 262-622); assay: as above
T6 construct: Bought from R&D Systems
T6 sequence: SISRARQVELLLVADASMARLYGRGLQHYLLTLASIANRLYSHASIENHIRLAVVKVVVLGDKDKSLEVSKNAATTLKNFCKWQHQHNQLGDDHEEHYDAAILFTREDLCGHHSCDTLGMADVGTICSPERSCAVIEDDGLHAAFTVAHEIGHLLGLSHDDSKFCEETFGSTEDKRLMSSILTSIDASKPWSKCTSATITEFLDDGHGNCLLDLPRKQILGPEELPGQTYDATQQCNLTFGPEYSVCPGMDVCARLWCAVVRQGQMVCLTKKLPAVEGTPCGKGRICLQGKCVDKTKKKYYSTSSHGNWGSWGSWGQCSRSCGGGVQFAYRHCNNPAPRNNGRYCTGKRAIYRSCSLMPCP
Procedure: as §2

B1: human anti-ADAMTS antibody (IgG1; clone 237-53) (antibody, V domains shown)
VH: QVQLVQSGAEVKKPGSSVKVSCKASGGTFSSFAISWVRQAPGQGLEWMGGIFPIFGQANYAQKFQGRVTITADESTSTAYMELSSLRSEDTAVYYCARFSDWWEWQMDYWGQGTLVTVSS
VL: DIVMTQSPDSLAVSLGERATINCRSSQSILYSSNNNYLAWYQQKPGQPPKLLIHTASARESGVPDRFSGSGSGTDFTLTISSLQAEDVAVYYCQQYYSVSITFGQGTKVEIKR
notes: HRP-labeled in the peptide array
binding result [1]: binds | binding result [2]: binds | binding result [3]: binds | binding result [4]: binds | Kd [5]: 11.7 nM | Kd [6]: 1.46 nM
